Test results reported in paper PMC6823927 (Bioconjugate chemistry, 2018).

B1: parental Fab (meditope-enabled trastuzumab Fab, Ala175) (Fab, V domains shown)
VH: not shown
VL: DIQMTQSPILLSASVGDRVTITCRASQDVNTAVAWYQQRTNGSPRLLIYSASFLYSGVPSRFSGSRSGTDFTLTISSLQPEDEADYYCQQHYTTPPTFGAGTKVEIK
B2: 175Cys-Fab (meditope-enabled trastuzumab Fab with Ala175 of the heavy chain changed to cysteine) (Fab, V domains shown)
VH: not shown
VL: B1 VL

Molecular target: extracellular domain of HER2 (Homo sapiens, UniProt P04626)
Test: SPR

Binder	binding result
B1	binds
B2	binds
